Reference: article PMC12483203

Target: Hu-1 G614 S-6P homotrimer (SARS-CoV-2 Wuhan-Hu-1 D614G spike ectodomain, hexaproline-stabilised) (SARS-CoV-2) (UniProt P0DTC2)
Test: SEC

Hu-1 G614 S-6P homotrimer (SARS-CoV-2 Wuhan-Hu-1 D614G spike ectodomain, hexaproline-stabilised) (from UniProt P0DTC2 14-1211) (natural protein)
stoichiometry N: 3
